By fraction remaining is commonly meant the share of the starting amount still present when the sample was taken.

Like-named read-outs stand apart in the source and are kept apart here. *1 amine or outer side, *2 acyl side, *3 side chain or, on linkers, in order; H or OH if unused. Where a SMILES comes first, the peptide text is derived from it. Primed or numbered codes have the meaning given here. Where no end group is shown, it is not given here. [ ]: non-standard residue; d: D form. Atz = (S)-2-amino-3-(1H-1,2,3-triazol-4-yl)propanoyl residue, substituent (PEG) on triazole N1, O=C([C@H](Cc1cn([*:3])nn1)N[*:1])[*:2]; Oic = O=C(O)[C@@H]1C[C@@H]2CCCC[C@@H]2N1; Phe(4-Cl) = N[C@@H](Cc1ccc(Cl)cc1)C(=O)O; 1Nal = N[C@@H](Cc1cccc2ccccc12)C(=O)O; hArg = N=C(N)NCCCC[C@H](N)C(=O)O; Cha = N[C@@H](CC1CCCCC1)C(=O)O; 20K‑mPEG = 20 kDa methoxy-PEG; 40K‑mPEG = 40 kDa methoxy-PEG; pGlu = O=C1CC[C@@H](C(=O)O)N1; PEG10′ = not defined here; Nle = CCCC[C@H](N)C(=O)O

Data on 15 molecules can be found in US20160067347A1, “APJ RECEPTOR AGONISTS AND USES THEREOF” (AMGEN INC., priority 2012, published 2016).

Series [1] can be described thus: in vitro. As to conditions: rat.
Description: Apelin peptides were spiked into freshly prepared mouse, rat, dog and human EDTA plasma to a final concentration of 5 μM. The plasma samples were then incubated at 37° C. over a period of 4 hr. Up to 8 time points were sampled to facilitate estimation of in vitro half life in plasma matrices. In a typical experiment, aliquot of 100 μL of plasma sample was taken from the incubation vial, followed by addition of 300 μL of MeOH containing internal standard. The quenched sample was centrifuged at 5500 g for 15 min after 15 min vortex in room temperature. The supernatant was then analyzed by high resolution LC-MS.
Series [2] can be described thus: FIGURE 4B. From the text: (§1) Table printed on a drawing sheet, FIGURE 4B
Section band inside the table: Peptides with triazole linker and 20 kDa PEG modification
(§2) The patent's description of the figure: FIGS. 4A-B. In vitro stability of APJ agonists in plasma.
(§3) First reader's note: Rows 3 and 9 of the grid are section headings spanning all columns (linker type of the 20 kDa PEGylated peptides).

A short description of series [3]: FIGURE 4B.
Description: as §1
Section band inside the table: Peptides with thioether linker and 20 kDa PEG modification
as §2, §3
This is another data set of the same source.

The subject of series [4] is isolated Langendorff rat heart. As to the kind of experiment: Langendorff isolated rat heart, hemodynamic cardiac function. As to conditions: control rats, FIGS. 7 and 8. From the text: To assess the hemodynamic cardiac function of the peptides a Langendorff isolated heart system was used. The isolated heart from rat provides broad spectrum of measurements that can include biochemical, metabolic, morphological and physiological indices. The limitations/advantages of the method include absence of neurohormonal influences, neural regulation and high coronary flows. Such limitations, however, are offset by the ability to study direct cardiac effects without systemic circulation and a host of peripheral interactions.
The reproducibility and accuracy of measurements and relatively low costs over in vivo studies for profiling drugs outweigh any limitations of this method. Therefore, this method provides excellent dose-response relationship and sheds critical insight into the pharmacological and physiological properties of the molecules of interest.
The animals were anesthetized upon administration of 50-100 mg/kg dose of sodium pentobarbital for rat via the intraperitoneal route. The heart was excised and gently cradled between fingers to avoid injury followed by lifting slightly before incising the aorta, vena cava and pulmonary vessels Immediately after excision of the heart with aorta, the heart was mounted onto the cannula in the Langendorff apparatus via the aorta. The heart was perfused with modified oxygenated Krebs-Henseleit buffer pH7.5 and equilibrated with 95% O2/5% CO2 at 37° C. The perfusion was performed at a constant flow of 10 ml/min and paced at 300 bpm. The pressure was measured through a pressure sensing balloon catheter inserted in the LV cavity. The intrinsic inotropy (force of muscle contraction) and lusitropy (cardiac relaxation) effects of the heart were assessed by dp/dtmax and dp/dtmin.
These figures illustrate improvement in both systolic and diastolic function of normal hearts with peptides of SEQ ID NOs: 23 and 24.

The test system of series [5] is healthy rats and rats having MI-induced heart failure. In words: In vivo cardiac hemodynamics (Millar PV loop, femoral arterial pressure) in healthy and MI-induced heart failure rats. Also on record: species or system rat. As to conditions: for mean dp/dt max increase: intravenous infusion, FIG. 9. The method, then: The cardiac function of healthy rats and the rats having MI (myocardial infarction)-induced heart failure was measured via the Millar PV loop system and femoral arterial pressure catheter were examined.
Male Lewis rats at 2-3 months of age were used for the studies. MI was induced by ligation of the left anterior descending coronary artery (LAD). Echocardiography was performed at 1 week post-MI for animal enrollment. If ejection fraction (EF) was more than 40% and no infarct was identified from echocardiography images, these animals were excluded from the study. The Millar PV loop catheter was inserted into the right common carotid artery and then advanced to the left ventricle (LV) for cardiovascular hemodynamic assessment. The arterial pressure catheter was inserted into a femoral artery for peripheral blood pressure monitoring.
Experiments were performed either on six-seven weeks post-MI rat, or healthy rats. […] Test articles were given intravenously via jugular vein, and 3 sets of peptide doses were used in the experiment. […] At the end of the experiment, the infarct size was verified by gross morphology if MI rats were used in the study.
Animals in MI groups had very similar infarct size (38-39% of LV) among the groups (results not shown).

For series [6], the target named is T1, rat APJ receptor (rat, UniProt Q9JHG3 1-377).
T1 sequence (looked up): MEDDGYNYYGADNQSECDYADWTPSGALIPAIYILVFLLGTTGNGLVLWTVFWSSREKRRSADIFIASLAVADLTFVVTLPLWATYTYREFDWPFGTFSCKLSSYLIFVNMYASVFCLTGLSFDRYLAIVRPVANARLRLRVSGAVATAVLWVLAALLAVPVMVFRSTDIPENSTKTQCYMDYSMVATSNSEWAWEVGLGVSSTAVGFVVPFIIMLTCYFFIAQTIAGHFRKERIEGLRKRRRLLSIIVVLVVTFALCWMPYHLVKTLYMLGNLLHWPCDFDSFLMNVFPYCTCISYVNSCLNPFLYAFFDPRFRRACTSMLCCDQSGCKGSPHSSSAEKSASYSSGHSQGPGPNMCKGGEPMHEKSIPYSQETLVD
In words: cell-based or functional assay.

Setting [7] is: dose ranges from 5.5 to 88 μg/kg.

As for `CCCC[C@H](NC(=O)[C@@H]1CCCN1C(=O)CNC(=O)[C@H](CCCCN)NC(=O)[C@H](Cc1cn(CCOCCOCCOCCOCCOCCOCCOCCOCCOCCOCCN)nn1)NC(=O)[C@H](Cc1ccccc1)NC(=O)[C@H](CC(C)C)N(C)C(=O)[C@H](CCCCNC(=N)N)NC(=O)[C@@H]1CCCN1C(=O)[C@H](CCCNC(=N)N)NC(=O)[C@@H]1CCC(=O)N1)C(=O)N[C@H](Cc1ccccc1)C(=O)O` [compound 29], the amount remaining at 1 h, 5 μM in series [1] (plasma) turned out to be 50%.
For the molecule `CCCC[C@H](NC(=O)[C@@H]1CCCN1C(=O)CNC(=O)[C@H](CCCCN)NC(=O)[C@H](Cc1c[nH]cn1)NC(=O)[C@H](CO)NC(=O)[C@H](CC1CCCCC1)NC(=O)[C@H](CCCCNC(=N)N)NC(=O)[C@@H]1CCCN1C(=O)[C@H](CCCNC(=N)N)NC(=O)[C@@H]1CCC(=O)N1)C(=O)N[C@@H](Cc1cccc2ccccc12)C(=O)O` [compound 31] ([pGlu]RP[hArg][Cha]SHKGP[Nle][1Nal]-OH; C-terminus assumed), the amount remaining at 1 h, 5 μM in series [1] (rat EDTA plasma) is 63%.
Regarding `CCCC[C@H](NC(=O)[C@@H]1CCCN1C(=O)CNC(=O)[C@H](CCCCN)NC(=O)[C@H](Cc1c[nH]cn1)NC(=O)[C@H](CO)NC(=O)[C@H](CC1CCCCC1)NC(=O)[C@H](CCCCNC(=N)N)NC(=O)[C@@H]1CCCN1C(=O)[C@H](CCCNC(=N)N)NC(=O)[C@@H]1CCC(=O)N1)C(=O)N[C@@H](Cc1ccc(Cl)cc1)C(=O)O` [compound 32] ([pGlu]RP[hArg][Cha]SHKGP[Nle][Phe(4-Cl)]-OH; C-terminus assumed), in series [1] (rat EDTA plasma), the amount remaining at 1 h, 5 μM was found to be 64.6%.
In turn, `CCCC[C@H](NC(=O)[C@@H]1C[C@@H]2CCCC[C@@H]2N1C(=O)CNC(=O)[C@H](CCCCN)NC(=O)[C@H](Cc1cn(CCOCCOCCOCCOCCOCCOCCOCCOCCOCCOCCN)nn1)NC(=O)[C@H](Cc1ccccc1)NC(=O)[C@H](CC1CCCCC1)NC(=O)[C@H](CCCCNC(=N)N)NC(=O)[C@@H]1CCCN1C(=O)[C@H](CCCNC(=N)N)NC(=O)[C@@H]1CCC(=O)N1)C(=O)N[C@H](Cc1ccccc1)C(=O)O` [compound 33] registered a fraction remaining at 1 h, 5 μM in series [1] (plasma) of 66%.
On the same count and under the same terms, next, `CCCC[C@H](NC(=O)[C@@H]1C[C@@H]2CCCC[C@@H]2N1C(=O)CNC(=O)[C@H](CCCCN)NC(=O)[C@H](Cc1c[nH]cn1)NC(=O)[C@H](Cc1cn(CCOCCOCCOCCOCCOCCOCCOCCOCCOCCOCCN)nn1)NC(=O)[C@H](CC1CCCCC1)NC(=O)[C@H](CCCCNC(=N)N)NC(=O)[C@@H]1CCCN1C(=O)[C@H](CCCNC(=N)N)NC(=O)[C@@H]1CCC(=O)N1)C(=O)N1CCC[C@H]1C(=O)N[C@@H](Cc1ccc(Cl)cc1)C(=O)O` [compound 34]: 72%.
For the molecule `CCCC[C@H](NC(=O)[C@@H]1C[C@@H]2CCCC[C@@H]2N1C(=O)CNC(=O)[C@H](CCCCN)NC(=O)[C@H](Cc1c[nH]cn1)NC(=O)[C@H](Cc1cn(CCOCCOCCOCCOCCOCCOCCOCCOCCOCCOCCN)nn1)NC(=O)[C@H](CC(C)C)N(C)C(=O)[C@H](CCCCNC(=N)N)NC(=O)[C@@H]1CCCN1C(=O)[C@H](CCCNC(=N)N)NC(=O)[C@@H]1CCC(=O)N1)C(=O)N[C@@H](Cc1ccc(Cl)cc1)C(=O)O` [compound 35], the fraction remaining at 1 h, 5 μM in series [1] (plasma) was 82%.
Regarding `CCCC[C@H](NC(=O)[C@@H]1C[C@@H]2CCCC[C@@H]2N1C(=O)CNC(=O)[C@H](CCCCN)NC(=O)[C@H](Cc1c[nH]cn1)NC(=O)[C@H](Cc1cn(CCOCCOCCOCCOCCOCCOCCOCCOCCOCCOCCN)nn1)NC(=O)[C@H](CC(C)C)N(C)C(=O)[C@H](CCCCNC(=N)N)NC(=O)[C@@H]1CCCN1C(=O)[C@H](CCCNC(=N)N)NC(=O)[C@@H]1CCC(=O)N1)C(=O)N1CCC[C@H]1C(=O)N[C@@H](Cc1ccc(Cl)cc1)C(=O)O` [compound 36], the fraction remaining at 1 h, 5 μM in series [1] (plasma) came to 88%.
As to “Atz(20K-mPEG)- KFRRQRP[hArg][Cha]SHKG[Oic][Nle]P[4-Cl-F] [compound 49]”, in series [2], the “in vitro plasma stability (t1/2, min) | HUMAN” value is listed as 176 min; the “in vitro plasma stability (t1/2, min) | MOUSE” value is recorded as 55 min; the “in vitro plasma stability (t1/2, min) | RAT” value amounted to 193 min.
For “Atz(20K-mPEG)-LRP[hArg][Cha]SHKG[Oic][Nle]P[4-Cl-F] [compound 50]”, in that order: 264 min, 64 min and 256 min.
Take “Thiopropionyl(20K-mPEG)- KFRRQRP[hArg][Cha]SHKG[Oic][Nle]P[4-Cl-F] [compound 44]”: in series [3], the “in vitro plasma stability (t1/2, min) | DOG” value amounted to 172 min; the “in vitro plasma stability (t1/2, min) | HUMAN” value came to 142 min; the “in vitro plasma stability (t1/2, min) | MOUSE” value is 37 min; the “in vitro plasma stability (t1/2, min) | RAT” value was 180 min.
As to “Thiopropionyl(20K-mPEG)- QRP[hArg][Cha]SHKG[Oic][Nle]P[4-Cl-F] [compound 48]”, in series [3], the “in vitro plasma stability (t1/2, min) | DOG” value came out at 219 min; the “in vitro plasma stability (t1/2, min) | HUMAN” value came out at 307 min; the “in vitro plasma stability (t1/2, min) | MOUSE” value was 53 min; the “in vitro plasma stability (t1/2, min) | RAT” value is listed as 303 min.
Turning to “Thiopropionyl(20K-mPEG)- RQRP[hArg][Cha]SHKG[Oic][Nle]P[4-Cl-F] [compound 47]”, in series [3], the “in vitro plasma stability (t1/2, min) | DOG” value is 279 min; the “in vitro plasma stability (t1/2, min) | HUMAN” value came out at 300 min; the “in vitro plasma stability (t1/2, min) | MOUSE” value is recorded as 41 min.
Take “[PE65;hArg68;Cha69;3-(1-(2-aminoethoxy(PEG9)ethyl)-1H-1,2,3-triazol-4-yl)Ala70;Oic74;Nle75;4-Cl-F77]Apelin-13(65-77) ([pGlu]RP[hArg][Cha][Atz](PEG10′)HKG[Oic][Nle]P[Phe(4-Cl)]) [SEQ ID NO: 23]”: in series [4], the dp/dtmax result is on record as “dose dependent increase”, the dp/dtmin entry is listed as “decrease” and the systolic pressure entry is “increases”. In addition, the “Heart rate (HR) increase” value in series [5] (MI rats, intravenous infusion of 88 μg/kg accumulative dose) was “up to 10.6%”. In addition, the “mean dp/dt max increase” value in series [5] (MI rats) is 24.5%. In series [5] (setting [7]), the “other cardiac hemodynamic changes” value is “No other cardiac hemodynamic changes were observed” and the “peripheral vascular resistant measurement such as mean arterial pressure” value was “No significant changes”. For the same molecule, the “mean dp/dt max increase” value in series [5] (healthy rats) came to 32%.
For {40K‑mPEG-Thiopropionyl}-KFRRQRP[hArg][Cha]SHKG[Oic][Nle]P[Phe(4-Cl)]-OH [{Thiopropionyl(40K-mPEG)}KFRRQRP[hArg][Cha]SHKG[Oic][Nle]P[4-Cl-F]{FreeAcid}], in series [6], the “EC50 (GTPγS assay)” value worked out at 1.37 nM and the “potency (GTPγS assay), fold reduction relative to 20 kDA (SEQ ID NO: 24)” value amounted to 5 fold.
Consider {20K‑mPEG-Thiopropionyl}-KFRRQRP[hArg][Cha]SHKG[Oic][Nle]P[Phe(4-Cl)] [Thiopropionyl(20K-mPEG)-KFRRQRP[hArg][Cha]SHKG[Oic][Nle]P[4-Cl-F]], for which, in series [6], the “EC50 (GTPγS assay)” value worked out at 0.252 nM.
